Drawing on US20230287598A1, this text covers CXCR1/Parental Ratio, CXCR1 specificity (CXCR1/parental ratio) and Specific Binding (CXCR1-Cell median AFU / Parental Cell median AFU) for 17 molecules.

Assay [1] addresses CXCR1 (UniProt P25024). Description: flow cytometry, CXCR1-U2OS / parental U2OS. On the technique in general: Flow cytometry measures light scatter and fluorescence of single cells or particles in a stream.
For assay [2], the target named is CXCR1 (UniProt P25024). The assay is described as follows: flow cytometry, 10 nM IgG, 2 ug/ml heparin sulfate, CXCR1-U2OS / parental U2OS.
CXCR1, sequence (P25024 whole entry): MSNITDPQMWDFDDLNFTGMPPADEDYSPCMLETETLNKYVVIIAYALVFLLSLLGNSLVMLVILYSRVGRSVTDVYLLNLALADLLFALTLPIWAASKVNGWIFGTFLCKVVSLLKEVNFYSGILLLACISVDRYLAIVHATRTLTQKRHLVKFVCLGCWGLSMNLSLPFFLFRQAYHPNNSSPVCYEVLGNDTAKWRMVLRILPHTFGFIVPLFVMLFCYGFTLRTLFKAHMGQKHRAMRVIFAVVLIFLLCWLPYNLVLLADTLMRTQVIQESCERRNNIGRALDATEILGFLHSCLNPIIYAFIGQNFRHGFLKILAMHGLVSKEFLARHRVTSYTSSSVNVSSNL
The target in assay [3] is CXCR1 (UniProt P25024). Description: flow cytometry, supernatant at 5 nM IgG.

B1: VH4-34+CDR3-IL8_CDR1 Cow_CDR2 Cow / V1-47 IgG (antibody, part only; not given: V1-47 light chain, part only)
VH: QVQLQQWGAGLLKPSETLSLTCTASGFSLSDKAVGWIRQPPGKGLEWLGSIDTGGNTGYNPSLKSRVTISVDTSKNQFSLKLSSVTAADTAVYYCTSVHQETKKYQSPRSAKELRCQCIKTYSKPFHPKFIKELRVIESGPHCANTEIIVKLSDGRELCLDPKENWVQRVVEKFLKRAENSGSGSYTYNYEWHVDVWGQGLLVTVSSAS
Turning to B1, the CXCR1/Parental Ratio in the assay with CXCR1 [1] was found to be 4.6.

B2: VH4-34+CDR3-IL8_CDR1 G31D,Y32K / V1-47 IgG (antibody, part only; not given: V1-47 light chain, part only)
VH: QVQLQQWGAGLLKPSETLSLTCAVYGGSFSDKYWSWIRQPPGKGLEWIGEINHSGSTNYNPSLKSRVTISVDTSKNQFSLKLSSVTAADTAVYYCTSVHQETKKYQSPRSAKELRCQCIKTYSKPFHPKFIKELRVIESGPHCANTEIIVKLSDGRELCLDPKENWVQRVVEKFLKRAENSGSGSYTYNYEWHVDVWGQGLLVTVSSAS
Regarding B2, the CXCR1/Parental Ratio with CXCR1 [1] is 3.6.

B3: VH4-34+CDR3-IL8_CDR1 Cow / V1-51 IgG (antibody, part only)
heavy: QVQLQQWGAGLLKPSETLSLTCTASGFSLSDKAVGWIRQPPGKGLEWIGEINHSGSTNYNPSLKSRVTISVDTSKNQFSLKLSSVTAADTAVYYCTSVHQETKKYQSPRSAKELRCQCIKTYSKPFHPKFIKELRVIESGPHCANTEIIVKLSDGRELCLDPKENWVQRVVEKFLKRAENSGSGSYTYNYEWHVDVWGQGLLVTVSSAS
light: QSVLTQPPSVSAAPGQKVTISCSGSSSNIGNNYVSWYQQLPGTAPKLLIYDNNKRPSGIPDRFSGSKSGTSATLGITGLQTGDEADYYCASAEDSSSNAVFGSGTTLTVLGQPKAAPSVTLFPPSSEELQANKATLVCLISDFYPGAVTVAWKADSSPVKAGVETTTPSKQSNNKYAASSYLSLTPEQWKSHRSYSCQVTHEGSTVEKTVAPTECS
Regarding B3, the CXCR1/Parental Ratio with CXCR1 [1] is 2.4. For the same molecule, the CXCR1 specificity (CXCR1/parental ratio) with CXCR1 [2] came to 7.2.

B4: VH4-34+CDR3-IL8_CDR2 Cow / V1-47 IgG (antibody, part only; not given: V1-47 light chain, part only)
VH: QVQLQQWGAGLLKPSETLSLTCAVYGGSFSGYYWSWIRQPPGKGLEWLGSIDTGGNTGYNPSLKSRVTISVDTSKNQFSLKLSSVTAADTAVYYCTSVHQETKKYQSPRSAKELRCQCIKTYSKPFHPKFIKELRVIESGPHCANTEIIVKLSDGRELCLDPKENWVQRVVEKFLKRAENSGSGSYTYNYEWHVDVWGQGLLVTVSSAS
Consider B4, for which, in the assay with CXCR1 [1], the CXCR1/Parental Ratio is 2.5.

B5: VH4-34+CDR3-IL8 / V1-51 IgG (antibody, part only; not given: V1-51 light chain, part only)
VH: QVQLQQWGAGLLKPSETLSLTCAVYGGSFSGYYWSWIRQPPGKGLEWIGEINHSGSTNYNPSLKSRVTISVDTSKNQFSLKLSSVTAADTAVYYCTSVHQETKKYQSPRSAKELRCQCIKTYSKPFHPKFIKELRVIESGPHCANTEIIVKLSDGRELCLDPKENWVQRVVEKFLKRAENSGSGSYTYNYEWHVDVWGQGLLVTVSSAS
Take B5: the CXCR1/Parental Ratio with CXCR1 [1] came out at 2.9.

B6: VH4-34+CDR3-IL8_CDR1 G31D,Y32K / V1-51 IgG (antibody, part only)
heavy: QVQLQQWGAGLLKPSETLSLTCAVYGGSFSDKYWSWIRQPPGKGLEWIGEINHSGSTNYNPSLKSRVTISVDTSKNQFSLKLSSVTAADTAVYYCTSVHQETKKYQSPRSAKELRCQCIKTYSKPFHPKFIKELRVIESGPHCANTEIIVKLSDGRELCLDPKENWVQRVVEKFLKRAENSGSGSYTYNYEWHVDVWGQGLLVTVSSAS
light: QSVLTQPPSVSAAPGQKVTISCSGSSSNIGNNYVSWYQQLPGTAPKLLIYDNNKRPSGIPDRFSGSKSGTSATLGITGLQTGDEADYYCASAEDSSSNAVFGSGTTLTVLGQPKAAPSVTLFPPSSEELQANKATLVCLISDFYPGAVTVAWKADSSPVKAGVETTTPSKQSNNKYAASSYLSLTPEQWKSHRSYSCQVTHEGSTVEKTVAPTECS
For B6, the CXCR1/Parental Ratio in the assay with CXCR1 [1] was 3.

B7: VH4-34+CDR3-IL8_CDR2 E50S / V1-47 IgG (antibody, part only; not given: V1-47 light chain, part only)
VH: QVQLQQWGAGLLKPSETLSLTCAVYGGSFSGYYWSWIRQPPGKGLEWIGSINHSGSTNYNPSLKSRVTISVDTSKNQFSLKLSSVTAADTAVYYCTSVHQETKKYQSPRSAKELRCQCIKTYSKPFHPKFIKELRVIESGPHCANTEIIVKLSDGRELCLDPKENWVQRVVEKFLKRAENSGSGSYTYNYEWHVDVWGQGLLVTVSSAS
Turning to B7, the CXCR1/Parental Ratio with CXCR1 [1] is 3.3.

B8: VH4-34+CDR3-IL8_CDR1 Cow / V1-47 IgG (antibody, part only; not given: V1-47 light chain, part only)
VH: QVQLQQWGAGLLKPSETLSLTCTASGFSLSDKAVGWIRQPPGKGLEWIGEINHSGSTNYNPSLKSRVTISVDTSKNQFSLKLSSVTAADTAVYYCTSVHQETKKYQSPRSAKELRCQCIKTYSKPFHPKFIKELRVIESGPHCANTEIIVKLSDGRELCLDPKENWVQRVVEKFLKRAENSGSGSYTYNYEWHVDVWGQGLLVTVSSAS
Regarding B8, the CXCR1/Parental Ratio with CXCR1 [1] was 5.1.

B9: VH4-34+CDR3-IL8_CDR2 Cow / V1-51 IgG (antibody, part only; not given: V1-51 light chain, part only)
VH: QVQLQQWGAGLLKPSETLSLTCAVYGGSFSGYYWSWIRQPPGKGLEWLGSIDTGGNTGYNPSLKSRVTISVDTSKNQFSLKLSSVTAADTAVYYCTSVHQETKKYQSPRSAKELRCQCIKTYSKPFHPKFIKELRVIESGPHCANTEIIVKLSDGRELCLDPKENWVQRVVEKFLKRAENSGSGSYTYNYEWHVDVWGQGLLVTVSSAS
Regarding B9, in the assay with CXCR1 [1], the CXCR1/Parental Ratio is 3.9.

B10: VH4-34+CDR3-IL8_CDR1 G31D,Y32K_CDR2 E50S / V1-51 IgG (antibody, part only; not given: V1-51 light chain, part only)
VH: QVQLQQWGAGLLKPSETLSLTCAVYGGSFSDKYWSWIRQPPGKGLEWIGSINHSGSTNYNPSLKSRVTISVDTSKNQFSLKLSSVTAADTAVYYCTSVHQETKKYQSPRSAKELRCQCIKTYSKPFHPKFIKELRVIESGPHCANTEIIVKLSDGRELCLDPKENWVQRVVEKFLKRAENSGSGSYTYNYEWHVDVWGQGLLVTVSSAS
As for B10, the CXCR1/Parental Ratio with CXCR1 [1] was 3.

B11: VH4-34+CDR3-IL8 / V1-47 IgG (antibody, part only; not given: V1-47 light chain, part only)
VH: QVQLQQWGAGLLKPSETLSLTCAVYGGSFSGYYWSWIRQPPGKGLEWIGEINHSGSTNYNPSLKSRVTISVDTSKNQFSLKLSSVTAADTAVYYCTSVHQETKKYQSPRSAKELRCQCIKTYSKPFHPKFIKELRVIESGPHCANTEIIVKLSDGRELCLDPKENWVQRVVEKFLKRAENSGSGSYTYNYEWHVDVWGQGLLVTVSSAS
Take B11: the CXCR1/Parental Ratio with CXCR1 [1] was determined as 2.6.

B12: VH4-34+CDR3-IL8_CDR2 E50S / V1-51 IgG (antibody, part only; not given: V1-51 light chain, part only)
VH: QVQLQQWGAGLLKPSETLSLTCAVYGGSFSGYYWSWIRQPPGKGLEWIGSINHSGSTNYNPSLKSRVTISVDTSKNQFSLKLSSVTAADTAVYYCTSVHQETKKYQSPRSAKELRCQCIKTYSKPFHPKFIKELRVIESGPHCANTEIIVKLSDGRELCLDPKENWVQRVVEKFLKRAENSGSGSYTYNYEWHVDVWGQGLLVTVSSAS
In the case of B12, the CXCR1/Parental Ratio in the assay with CXCR1 [1] was 1.8.

B13: VH4-34+CDR3-IL8_CDR1 G31D,Y32K_CDR2 E50S / V1-47 IgG (antibody, part only; not given: V1-47 light chain, part only)
VH: QVQLQQWGAGLLKPSETLSLTCAVYGGSFSDKYWSWIRQPPGKGLEWIGSINHSGSTNYNPSLKSRVTISVDTSKNQFSLKLSSVTAADTAVYYCTSVHQETKKYQSPRSAKELRCQCIKTYSKPFHPKFIKELRVIESGPHCANTEIIVKLSDGRELCLDPKENWVQRVVEKFLKRAENSGSGSYTYNYEWHVDVWGQGLLVTVSSAS
B13: the CXCR1/Parental Ratio in the assay with CXCR1 [1] stood at 1.4.

B14: VH4-34+CDR3-IL8_CDR1 Cow_CDR2 E50S / V1-51 IgG (antibody, part only; not given: V1-51 light chain, part only)
VH: QVQLQQWGAGLLKPSETLSLTCTASGFSLSDKAVGWIRQPPGKGLEWIGSINHSGSTNYNPSLKSRVTISVDTSKNQFSLKLSSVTAADTAVYYCTSVHQETKKYQSPRSAKELRCQCIKTYSKPFHPKFIKELRVIESGPHCANTEIIVKLSDGRELCLDPKENWVQRVVEKFLKRAENSGSGSYTYNYEWHVDVWGQGLLVTVSSAS
Take B14: in the assay with CXCR1 [1], the CXCR1/Parental Ratio stood at 3.1.

B15: VH4-34+CDR3-IL8_CDR1 Cow_CDR2 E50S / V1-47 IgG (antibody, part only; not given: V1-47 light chain, part only)
VH: QVQLQQWGAGLLKPSETLSLTCTASGFSLSDKAVGWIRQPPGKGLEWIGSINHSGSTNYNPSLKSRVTISVDTSKNQFSLKLSSVTAADTAVYYCTSVHQETKKYQSPRSAKELRCQCIKTYSKPFHPKFIKELRVIESGPHCANTEIIVKLSDGRELCLDPKENWVQRVVEKFLKRAENSGSGSYTYNYEWHVDVWGQGLLVTVSSAS
As to B15, in the assay with CXCR1 [1], the CXCR1/Parental Ratio was 2.6.

B16: VH4-34+CDR3-IL8_CDR1-Cow_CDR2-E50S_Q5RQ6E / VL1-51 S2A, T5N, P8S, A12G, A13S, P14L, K46R, L47T, D51G, N52D, N53T IgG (antibody)
VH: QVQLREWGAGLLKPSETLSLTCTASGFSLSDKAVGWIRQPPGKGLEWIGSINHSGSTNYNPSLKSRVTISVDTSKNQFSLKLSSVTAADTAVYYCTSVHQETKKYQSPRSAKELRCQCIKTYSKPFHPKFIKELRVIESGPHCANTEIIVKLSDGRELCLDPKENWVQRVVEKFLKRAENSGSGSYTYNYEWHVDVWGQGLLVTVSS
light: QAVLNQPSSVSGSLGQKVTISCSGSSSNIGNNYVSWYQQLPGTAPRTLIYGDTKRPSGIPDRFSGSKSGTSATLGITGLQTGDEADYYCASAEDSSSNAVFGSGTTLTVLGQPKAAPSVTLFPPSSEELQANKATLVCLISDFYPGAVTVAWKADSSPVKAGVETTTPSKQSNNKYAASSYLSLTPEQWKSHRSYSCQVTHEGSTVEKTVAPTECS
Consider B16, for which the Specific Binding (CXCR1-Cell median AFU / Parental Cell median AFU) with CXCR1 [3] is 2.

B17: VH4-34+CDR3-IL8_CDR2 E50S / VL1-51 S2A, T5N, P8S, A12G, A13S, P14L, D51G, N52D, N53T IgG (antibody)
VH: QVQLQQWGAGLLKPSETLSLTCAVYGGSFSGYYWSWIRQPPGKGLEWIGSINHSGSTNYNPSLKSRVTISVDTSKNQFSLKLSSVTAADTAVYYCTSVHQETKKYQSPRSAKELRCQCIKTYSKPFHPKFIKELRVIESGPHCANTEIIVKLSDGRELCLDPKENWVQRVVEKFLKRAENSGSGSYTYNYEWHVDVWGQGLLVTVSSAS
light: QAVLNQPSSVSGSLGQKVTISCSGSSSNIGNNYVSWYQQLPGTAPKLLIYGDTKRPSGIPDRFSGSKSGTSATLGITGLQTGDEADYYCASAEDSSSNAVFGSGTTLTVLGQPKAAPSVTLFPPSSEELQANKATLVCLISDFYPGAVTVAWKADSSPVKAGVETTTPSKQSNNKYAASSYLSLTPEQWKSHRSYSCQVTHEGSTVEKTVAPTECS
On to B17, for which the Specific Binding (CXCR1-Cell median AFU / Parental Cell median AFU) in the assay with CXCR1 [3] stood at 2.
